Each block holds one molecule with its values, some of them ahead of it.
How the values were obtained:
[1] = tested on: OCUM-12 gastric cancer cell line; assay: Antitumor activity test, model with OCUM-12 orthotopic transplantation (prevention model); assay type: in vivo, mouse; conditions: for Antitumor activity (tumor growth, tumor size): 20 mg/kg intraperitoneally twice a week from the day following transplantation
Protocol: A model with OCUM-12 orthotopic transplantation was prepared to evaluate the above 4 types of candidate antibodies for their in vivo CXCR2 migration inhibitory activity and antitumor activity in a xenograft model with OCUM-12 orthotopic transplantation.
For use as mice, female nude mice (BALB/cAJcl-nu/nu) at 5 to 6 weeks of age were purchased from CLEA Japan, Inc., Japan. For use as human cancer cells, a gastric cancer cell line, OCUM-12, was provided by University Public Corporation Osaka, Japan.
OCUM-12 cells were cultured in D-MED medium (FUJIFILM Wako Pure Chemical Corporation, Japan) supplemented with 10% fetal bovine serum (FBS; Sigma-Aldrich Corporation) and 1/100 volumes of a penicillin-streptomycin mixture (Nacalai Tesque, Inc., Japan). The cells to be transplanted were detached with 0.25% trypsin/0.02% EDTA (Thermo Fisher Scientific) and washed with PBS, and 4× 10^5 cells per mouse were transplanted into the gastric wall of each mouse.
On the day following the above transplantation, the mice were randomized into groups (8 or 6 mice per group) and intraperitoneally administered with PBS as a control and with 4 types of candidate antibodies (1A-7H10, 4A-2F7, 5A-5E11 and 028-8-12) and 3 types of non-candidate antibodies (1A-3C6, 1A-2H3 and 4A-5B11) at a dose of 20 mg/kg. In addition, mouse IgG1 as a control was intraperitoneally administered at a dose of 20 mg/kg, and 3 types of antibodies (5A-5E11, 1A-4H10 and 4A-7G7) among the candidate antibodies were intraperitoneally administered at a dose of 20 mg/kg. The administration of these antibodies was then continued with a frequency of twice a week until the completion of the test. After 3 weeks had passed from the transplantation, the mice were sacrificed, and the short- and long-axis diameters of tumors formed in their gastric walls were each measured with a caliper. The tumor size was calculated according to the following: 1/2 short-axis diameter (mm)×1/2 long-axis diameter (mm)×3.14.
Navarixin is among small molecular compounds that act on CXCR2 and inhibit CXCL1-CXCR2 signaling. […] Then, using a model with OCUM-12 orthotopic transplantation, the migration inhibition of CXCR2-expressing cells and antitumor activity were evaluated in vivo for Navarixin. As a vehicle, ultrapure water containing 20% 2-hydroxypropyl-β-cyclodextrin (FUJIFILM Wako Pure Chemical Corporation, Japan) was used. Navarixin (MedChemExpress) was dissolved in ultrapure water containing 20% 2-hydroxypropyl-β-cyclodextrin, and orally administered at a dose of 100 mg/kg/day in a schedule of once a day for 5 consecutive days, followed by a 2-day withdrawal.
The humanized antibodies were evaluated for their in vivo antitumor activity and CXCR2 migration inhibitory activity in a xenograft model with OCUM-12 orthotopic transplantation. Procedures for the evaluation are shown below.
For use as mice, female nude mice (BALB/cAJcl-nu/nu) at 5 to 6 weeks of age were purchased from CLEA Japan, Inc., Japan. For use as human cancer cells, gastric cancer cell line, OCUM-12, was provided by Osaka Metropolitan University, Japan.
OCUM-12 cells were cultured in D-MED medium (FUJIFILM Wako Pure Chemical Corporation, Japan) supplemented with 10% fetal bovine serum (hereinafter abbreviated as FBS; Sigma-Aldrich Corporation) and 1/100 volumes of a penicillin-streptomycin mixture (Nacalai Tesque, Inc., Japan). The cells to be transplanted were detached with 0.25% trypsin/0.02% EDTA (Thermo Fisher Scientific) and washed with PBS, and 4×10^5 cells per mouse were transplanted into the gastric wall of each mouse. On the day following the transplantation, the mice were randomized into groups (8 mice per group) and intraperitoneally administered with test antibodies at a dose of 400 μg/head. PBS was intraperitoneally administered in a volume of 200 μL with a frequency of twice a week for 3 weeks, starting from the day following the transplantation. […]

[2] = biological target: T1, human CXCL2 (Homo sapiens, UniProt P19875); assay: Binding to human CXCL2
T1 sequence (P19875 35-107): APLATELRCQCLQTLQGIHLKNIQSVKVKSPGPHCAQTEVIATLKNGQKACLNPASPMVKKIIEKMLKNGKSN

[3] = biological target: T2, human CXCL5 (Homo sapiens, UniProt P42830); assay: Binding to human CXCL5
T2 sequence (P42830 37-114): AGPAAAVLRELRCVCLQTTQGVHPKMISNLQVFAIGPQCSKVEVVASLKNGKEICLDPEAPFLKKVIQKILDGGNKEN

[4] = tested on: OCUM-2MLN gastric cancer cell line; assay: Efficacy evaluation in a model with OCUM-2MLN orthotopic transplantation; assay type: in vivo, mouse; conditions: 20 mg/kg intraperitoneally twice a week, 3 weeks, compared to PBS control
Protocol: Among the candidate antibodies, 3 types of antibodies (4A-2F7, 5A-5E11 and 028-8-12) were evaluated for their in vivo antitumor activity in a xenograft model with OCUM-2MLN orthotopic transplantation. Procedures for the evaluation are shown below.
For use as mice, female nude mice (BALB/cAJcl-nu/nu) at 5 to 6 weeks of age were purchased from Charles River Japan, Inc. As human cancer cells, a gastric cancer cell line, OCUM-2MLN, was used.
OCUM-2MLN cells were cultured in D-MEM medium (FUJIFILM Wako Pure Chemical Corporation, Japan) supplemented with 10% fetal bovine serum (FBS; NICHIREI BIOSCIENCE), 1/100 volumes of a penicillin-streptomycin mixture (FUJIFILM Wako Pure Chemical Corporation, Japan) and 1/100 volumes of a sodium pyruvate solution (SIGMA-ALDRICH). The cells to be transplanted were detached with a 0.05 w/v % trypsin/0.53 mmol/L EDTA 4Na solution (FUJIFILM Wako Pure Chemical Corporation, Japan) and washed with PBS, and 1× 10^6 cells per mouse were transplanted into the gastric wall of each mouse. […] After 3 weeks had passed from the transplantation, the mice were sacrificed, and the short- and long-axis diameters of tumors formed in their gastric walls were each measured with a caliper. The tumor size was calculated according to the following: short-axis diameter (mm)×long-axis diameter (mm).

B1: Hu5A-5E11: humanized antibody VH1/VL1; VH SEQ ID NO: 76, VL SEQ ID NO: 78 (antibody, V domains shown)
VH: QVQLVQSGAEVKKPGSSVKVSCKASGYAFSDYWMNWVRQAPGQGLEWIGQIYPGSGDTNYNAKFKGKGTITADKSTSTAYMELSSLRSEDTAVYYCARERDYDVAMDYWGQGTTVTVSS
VL: DIQMTQSPSSLSASVGDRVTITCKASQDINKYIAWFQQKPGKAPKLVIHYTSILQPGVPSRFSGSGSGTDYTFTISSLQPEDIATYYCLQYDNLPWTFGGGTKVEIK
Antitumor activity (tumor area) ([1]; 400 μg/head intraperitoneally twice a week, 3 weeks, compared to hIgG1 antibody): significantly suppress an increase in the tumor area | Dose significantly suppressing the tumor area ([1]; prevention model, compared to PBS): ≥ 60 μg/head

B2: 4A-2F7: mouse monoclonal anti-HuCXCL1 antibody clone; VH SEQ ID NO: 9, VL SEQ ID NO: 13 (antibody, listed as Mus musculus, V domains shown)
VH: QVTLKESGPGILKPSQTLSLTCSFSGFSLSTSGMGVDWIRQPSGKGLEWLAHIWWDDDKYYNPSLKSQLTISKDTSRNQVFLKITSVDTADTATYYCARSYGYDMDYYAMDYWGQGTSVTVSS
VL: DIQMTQSPSSLSASLGERVSLTCRASQEISGYLSWLQQKPDGTIKRLIYAASTLDSGVPKRFSGSRSGSDYSLTISSLESEDFADYYCLQYASYPPWTFGGGTKLEIK
Binding to human CXCL2 [2]: also bind | Binding to human CXCL5 [3]: also bind | Antitumor activity (tumor growth, tumor size) ([1]; 3 weeks, compared to PBS): significantly suppress tumor growth | Antitumor activity (tumor growth, tumor size) [4]: significantly suppress tumor growth

B5: 1A-7H10: mouse monoclonal anti-HuCXCL1 antibody clone; VH SEQ ID NO: 1, VL SEQ ID NO: 5 (antibody, listed as Mus musculus, V domains shown)
VH: QVQLKESGPVLVAPSQSLSITCSVSGFSSTTYGVHWVRQPPGQGLEWLGVIWAGGSTNYNSALMSRLSISKDNSKSQVFLKMNSLQTDDTAMYYCATQYHYPFAYWGQGTLVTVSA
VL: NIVMTQSPKSMSMSVGERVTLSCKASENVGIYVSWYQQKPEQSPKLMIYGASNRNTGVPDRFTGSGSATDFTLTISSVQAEDLADYYCGQSYSYPLTFGAGTKLELK
Binding to human CXCL2 [2]: also bind | Antitumor activity (tumor growth, tumor size) ([1]; 3 weeks, compared to PBS): significantly suppress tumor growth

Further lines, with some results ahead:

Binding to human CXCL2 [2]: also bind
B3: 028-8-12: human antibody against CXCL1 from the human ADLib technique; VH SEQ ID NO: 25, VL SEQ ID NO: 29 (antibody, listed as Gallus gallus, V domains shown)
VH: EVQLLESGGGLVQPGGSLRLSCAASGFTFSELSMSWVRQAPGKGLEWVSAISGSGGSTYYADSVKGRFTISRDNSKNTLYLQMNSLRAEDTAVYYCAREGGRLEPYYYYYAMDVWGQGTPVTVSS
VL: DIQMTQSPSSLSASVGDRVTITCRASQSISDNLHWYQQKPGKAPKLLIYDASNLESGVPSRFSGSGSGTDFTLTINSLQPEDFATYYCQQYYSTPLTFGQGTKLEIK
Antitumor activity (tumor growth, tumor size) ([1]; 3 weeks, compared to PBS): significantly suppress tumor growth

Binding to human CXCL2 [2]: also bind | Binding to human CXCL5 [3]: also bind
B4: 5A-5E11: mouse monoclonal anti-HuCXCL1 antibody clone; VH SEQ ID NO: 17, VL SEQ ID NO: 21 (antibody, listed as Mus musculus, V domains shown)
VH: QVQLQQSGAELVRPGSSVKISCKASGYAFSDYWMNWVKQRPGQGLEWIGQIYPGDGDTNYNGKFKGKGTLTADKSSSTAYMQLNSLTSEDSAVYFCARERDYDVAMDYWGQGTSVTVSS
VL: DIQMTQSPSSLSASLGGKVTITCKASQDINKYIAWFQHKPGKGPRLVIHYTSILQPGIPSRFSGVGSGRDYSFSIRNLEPEDIATYYCLQYDNLPWTFGGGTKLEIK
Antitumor activity (tumor growth, tumor size) ([1]; 3 weeks, compared to PBS): significantly suppress tumor growth | Antitumor activity (tumor growth, tumor size) [4]: significantly suppress tumor growth

Reference: US20250154240A1, “ANTI-HUMAN CXCL1 ANTIBODY” (CHIOME BIOSCIENCE INC., priority 2022, published 2025)
